Measured values from US20150018528A1.

Columns and labels:
[1] = target: TREM-1-interacting protein on PGN-stimulated neutrophils; assay: flow cytometry competition: 2 µg/ml TREM-1 tetramer as probe with 100 µg/ml DCIR COMP; did not compete
[2] = target: Type II 1.0 PGLYRP1 on HEK293 6E cells (human); assay: cell-based or functional assay
[3] = target: TREM-1-interacting protein on PGN-stimulated neutrophils; assay: flow cytometry competition: 2 µg/ml TREM-1 tetramer as probe with 100 µg/ml TREM COMP
[4] = target: human TREM-1 on BWZ.36/hTREM-1:DAP12:NFAT-LacZ reporter cells (human) (UniProt Q9NP99); assay: cell-based or functional assay
Chain of human TREM-1 on BWZ.36/hTREM-1:DAP12:NFAT-LacZ reporter cells (human) (Q9NP99 21-234): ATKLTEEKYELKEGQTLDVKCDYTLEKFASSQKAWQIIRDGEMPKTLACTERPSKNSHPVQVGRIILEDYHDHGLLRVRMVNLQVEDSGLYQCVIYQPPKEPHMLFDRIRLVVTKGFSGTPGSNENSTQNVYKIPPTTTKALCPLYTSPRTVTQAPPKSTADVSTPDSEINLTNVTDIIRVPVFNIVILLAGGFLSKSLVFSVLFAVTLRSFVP

[5] = target: Type II PGLYRP1 on HEK293-6E cells (Example 15) (human); assay: flow cytometry on transfected HEK293-6E cells
Chain of Type II PGLYRP1 on HEK293-6E cells (Example 15) (human) (chain, as listed by the source limits assumed, form in doubt): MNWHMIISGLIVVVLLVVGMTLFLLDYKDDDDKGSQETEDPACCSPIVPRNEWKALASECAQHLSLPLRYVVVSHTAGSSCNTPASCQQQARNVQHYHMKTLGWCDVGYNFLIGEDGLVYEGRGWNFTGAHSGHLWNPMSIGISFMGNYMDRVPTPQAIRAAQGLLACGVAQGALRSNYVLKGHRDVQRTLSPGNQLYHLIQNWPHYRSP

[6] = target: Type II PGLYRP3 + 4 on HEK293-6E cells (human); assay: flow cytometry on transfected HEK293-6E cells
Chain of Type II PGLYRP3 + 4 on HEK293-6E cells (human) (Q96LB9 other isoform, or with tags, fused parts or gaps, form in doubt, chain 1 of 2): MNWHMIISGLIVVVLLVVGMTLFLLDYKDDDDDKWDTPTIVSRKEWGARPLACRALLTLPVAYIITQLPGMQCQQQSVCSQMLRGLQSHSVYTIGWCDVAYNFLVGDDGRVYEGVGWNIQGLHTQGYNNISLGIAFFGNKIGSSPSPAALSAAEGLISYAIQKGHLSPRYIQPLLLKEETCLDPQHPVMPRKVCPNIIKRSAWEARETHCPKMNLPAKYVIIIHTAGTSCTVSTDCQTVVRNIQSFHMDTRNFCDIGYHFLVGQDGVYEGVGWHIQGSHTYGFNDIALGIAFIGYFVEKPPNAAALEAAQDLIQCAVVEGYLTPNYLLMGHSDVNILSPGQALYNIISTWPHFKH
Chain of Type II PGLYRP3 + 4 on HEK293-6E cells (human) (Q96LB8 other isoform, or with tags, fused parts or gaps, form in doubt, chain 2 of 2, further chain): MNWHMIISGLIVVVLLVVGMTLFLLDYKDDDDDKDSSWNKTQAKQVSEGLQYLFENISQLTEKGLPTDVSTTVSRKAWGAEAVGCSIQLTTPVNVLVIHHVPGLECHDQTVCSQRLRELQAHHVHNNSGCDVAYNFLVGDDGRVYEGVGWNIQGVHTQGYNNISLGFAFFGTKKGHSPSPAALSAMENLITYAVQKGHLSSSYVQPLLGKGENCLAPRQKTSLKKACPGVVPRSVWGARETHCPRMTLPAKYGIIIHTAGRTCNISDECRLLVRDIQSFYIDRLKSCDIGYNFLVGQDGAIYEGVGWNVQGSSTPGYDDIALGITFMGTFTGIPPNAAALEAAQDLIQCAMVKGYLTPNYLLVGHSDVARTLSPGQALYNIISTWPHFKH

[7] = target: Type II PGLYRP3 on HEK293-6E cells (human); assay: flow cytometry on transfected HEK293-6E cells
Chain of Type II PGLYRP3 on HEK293-6E cells (human) (Q96LB9 other isoform, or with tags, fused parts or gaps, form in doubt): as the sequence (Q96LB9 other isoform, or with tags, fused parts or gaps, form in doubt, chain 1 of 2) above

[8] = target: Type II PGLYRP1 on HEK293-6E cells (Example 15) (human); assay: flow cytometry on transfected HEK293-6E cells, probe 5 ug/ml; grade of MFI ratio over negative control (++++ is >30)
[9] = target: TREM-1-interacting protein on PGN-stimulated neutrophils; assay: flow cytometry on PGN-stimulated neutrophils, 2 µg/ml probe, goat anti hFc/PE

Chain of Type II 1.0 PGLYRP1 on HEK293 6E cells (human) (chain, as listed by the source limits assumed): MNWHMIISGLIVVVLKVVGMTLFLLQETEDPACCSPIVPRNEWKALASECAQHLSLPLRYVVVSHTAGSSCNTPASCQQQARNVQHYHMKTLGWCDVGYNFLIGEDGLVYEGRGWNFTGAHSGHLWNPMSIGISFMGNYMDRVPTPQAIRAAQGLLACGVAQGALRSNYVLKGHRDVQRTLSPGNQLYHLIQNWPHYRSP

Substance | ratio of MFI of probe staining over negative control staining [5] | ratio of MFI of probe staining over negative control staining [6] | ratio of MFI of probe staining over negative control staining [7] | further results
DCIR COMP (6HIS-SBP38x2-COMP-hDCIR) |  |  |  | % positive cells (TREM-1 tetramer staining with competitor) [1]: 41%
IsoAb (isotype control antibody of Example 18) |  |  |  | Activity of BWZ/hTREM1 reporter cells with Type II 1.0 PGLYRP1 transfectants (without antibody: 100%) [2]: 98%
TREM COMP (hTREM-1-COMP-SBP38x2-6HIS) |  |  |  | % positive cells (TREM-1 tetramer staining with competitor) [3]: 10%
Type II 1.0 PGLYRP1 on HEK293 6E cells (ligand) |  |  |  | Fold activity of BWZ/hTREM1 reporter cells co-incubated with transfected HEK293 6E cells, without PGN, against empty vector [4]: 24 fold
huTREM-1.Fc dimer (C0099) (Fc fusion) |  | < 1 | < 1 | ratio of MFI of probe staining over negative control staining [8]: > 30
human TREM-1-G4Sx3-TREM-1/Fc6mut (TREM-1 tetramer) (Fc fusion) |  |  |  | % positive cells [9]: 39%

Second part, led by results:

ratio of MFI of probe staining over negative control staining [5] | ratio of MFI of probe staining over negative control staining [6] | ratio of MFI of probe staining over negative control staining [7] | Substance | further results
< 1 | < 1 | < 1 | huTREM2.Fc dimer (C0248) (Fc fusion) | 
< 1 | < 1 | < 1 | huTREML1.Fc dimer (C0246) (Fc fusion) | 
< 1 | < 1 | < 1 | huTREML2.Fc dimer (C0247) (Fc fusion) | 
